{"source": "patent US20250066483A1", "about": "(FUSO PHARMACEUTICAL INDUSTRIES, published 2025)", "key": {"bovine FcγRI-His": {"molecular_target": "T1, bovine FcγRI-His (bovine)", "T1 construct": "extracellular domain; Made in Expi293F cells; also called soluble bovine FcγRI", "assay": "ELISA: antibody immobilized at 1.56 to 50 nM, bovine FcγRI-His added at 10 µg/ml, detection with anti-polyhistidine antibody and HRP anti-mouse IgG [A]", "protocol": "(§1) Subsequently, each well was washed with 200 μl of 0.05% Tween 20-supplemented PBS (PBS-T) five times, followed by blocking with SuperBlock (PBS) Blocking Buffer (Thermo Fisher Scientific) at 37° C. for 30 min. Each well was washed again in the same manner. Then, bovine FcγRI-His, FcγRII-His, FcγRIII-His or Fcγ2R-His was added to each well at a final concentration of 10 μg/ml and reacted at 37° C. for 1 hr. After washing, anti-polyhistidine tag mouse monoclonal antibody (Abcam) was reacted at 37° C. for 30 min. Subsequently, each well was washed, and horseradish peroxidase-labeled anti-mouse IgG goat polyclonal antibody (MP Biomedicals) was reacted at 37° C. for 30 min. Each well was washed again, and then TMB One Component Substrate (Bethyl) was added for coloring. Thereafter, the enzyme reaction was terminated with 0.18 M dilute sulfuric acid, and absorbance (450 nm) was measured with Microplate Reader MTP-900 (Corona Electric)."}, "bovine FcγRII-His": {"molecular_target": "T2, bovine FcγRII-His (bovine, UniProt Q28110 43-225)", "T2 construct": "extracellular domain; Made in Expi293F cells; also called soluble bovine FcγRII", "T2 sequence": "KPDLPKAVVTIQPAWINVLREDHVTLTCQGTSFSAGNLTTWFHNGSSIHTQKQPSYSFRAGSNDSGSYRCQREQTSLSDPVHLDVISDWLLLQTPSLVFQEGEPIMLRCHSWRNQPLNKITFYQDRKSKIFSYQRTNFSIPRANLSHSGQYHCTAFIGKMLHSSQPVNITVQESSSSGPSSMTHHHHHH", "assay": "ELISA: antibody immobilized at 1.56 to 50 nM, bovine FcγRII-His added at 10 µg/ml [B]", "protocol": "as §1"}, "bovine PD-1-His": {"molecular_target": "T3, bovine PD-1-His (bovine)", "T3 construct": "extracellular domain; Made in Expi293F cells; also called soluble bovine PD-1-His; PD-1 protein", "assay": "SPR (Biacore X100), bovine PD-1-His immobilised on a CM5 chip, antibody as analyte, single kinetics, 3 repeats", "protocol": "The binding avidities to bovine PD-1 of rat anti-bovine PD-1 antibody 5D2 and rat-bovine chimeric anti-bovine PD-1 antibody ch5D2 were measured by surface plasmon resonance using a biomolecular interaction analyzer (Biacore X100). Briefly, bovine PD-1-His (described above) was immobilized on a CM5 sensor chip (GE Healthcare) as a ligand. Subsequently, rat anti-bovine PD-1 antibody 5D2 or rat-bovine chimeric anti-bovine PD-1 antibody ch5D2 was reacted as an analyte, followed by single kinetics analysis. The experiment was repeated 3 times under the same conditions. Binding constant (kd value) and dissociation constant (ka value) were determined in each experiment, and binding avidity (KD value) was obtained."}, "[1]": {"molecular_target": "T4, canine PD-L1 on cPD-L1-EGFP expressing COS-7 cells (canine, UniProt E2RKZ5 19-289)", "T4 construct": "Transient expression in COS-7 cells; also called canine PD-L1 expressing cells; cPD-L1-EGFP expressing cell", "T4 sequence": "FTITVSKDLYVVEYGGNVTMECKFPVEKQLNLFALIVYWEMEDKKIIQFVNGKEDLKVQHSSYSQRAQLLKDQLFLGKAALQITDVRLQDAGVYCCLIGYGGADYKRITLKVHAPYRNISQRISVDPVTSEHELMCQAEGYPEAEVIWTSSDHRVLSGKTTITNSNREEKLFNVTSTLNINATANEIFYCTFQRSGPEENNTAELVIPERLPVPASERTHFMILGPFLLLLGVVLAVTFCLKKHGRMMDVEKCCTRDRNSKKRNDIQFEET", "assay": "flow cytometry (section 2.5)", "protocol": "In order to identify rat anti-bovine PD-L1 monoclonal antibody showing cross-reactivity with canine PD-L1, flow cytometry was performed using the anti-bovine PD-L1 antibody prepared in 2.1 above. The anti-bovine PD-L1 antibody (10 μg/ml) was reacted with 2×10⁵-1×10⁶ cells at room temperature for 30 min. After washing, the anti-bovine PD-L1 antibody was detected with allophycocyanine-labeled anti-rat Ig goat antibody (Beckman Coulter). FACS Verse (Becton, Dickinson and Company) was used for analysis. As negative controls, rat IgG2a (κ) isotype control (BD Biosciences), rat IgG1 (κ) isotype control (BD Biosciences) and rat IgM (κ) isotype control (BD Biosciences) were used. For every washing operation and dilution of antibodies, 10% inactivated goat serum-supplemented PBS was used (MaekawaN, Konnai S, Ikebuchi R, Okagawa T, Adachi M, Takagi S, KagawaY, Nakajima C, Suzuki Y, Murata S, Ohashi K. PLoS One. 2014 Jun. 10; 9(6):e98415 which is an article describing the use of three bovine PD-L1 monoclonal antibodies: 4G12 (Rat IgG2a (κ)), 5A2 (Rat IgG1 (κ)) and 6G7 (Rat IgM (κ))."}, "canine PD-L1-His": {"molecular_target": "T5, canine PD-L1-His (canine)", "T5 construct": "extracellular domain; Made in Expi293F cells; also called cPD-L1-His", "assay": "SPR (Biacore X100), cPD-L1-His captured by anti-histidine antibody on a CM5 chip, antibody as analyte", "protocol": "Using a biomolecular interaction analyzer (Biacore X100), the binding avidities to cPD-L1-His of rat anti-bovine PD-L1 monoclonal antibody 4G12 and rat-canine chimeric anti-PD-L1 antibody c4G12 were assessed. Briefly, anti-histidine antibody was fixed on CM5 censor chip, followed by capturing of cPD-L1-His. Subsequently, monoclonal antibodies were added as analyte to observe specific binding. […] Further, the binding avidities of canine PD-1-Ig and CD80-Ig to cPD-L1-His were measured in the same manner and found to be clearly lower than that of rat-canine chimeric anti-PD-L1 antibody c4G12 (Table 1)."}, "[2]": {"molecular_target": "T4, canine PD-L1 on cPD-L1-EGFP expressing …", "assay": "flow cytometry on canine PD-L1 expressing cells"}}}
{"binder": "rat-bovine chimeric anti-bovine PD-1 antibody ch5D2 having wild-type bovine IgG1 (IgG1 WT) (antibody, Made in Expi293F cells; also called ch5D2 IgG1 WT) heavy: QVQLKETGPGLVQPTQTLSITCTVSGFSLTSYYIQWVRQTPGKGLEWMGFIRSGGSTEYNSEFKSRLSINRDTSKNQVFLKMNSLKTEDTGVYYCARTSSGYEGGFDYWGQGVMVTVSSASTTAPKVYPLSSCCGDKSSSTVTLGCLVSSYMPEPVTVTWNSGALKSGVHTFPAVLQSSGLYSLSSMVTVPGSTSGQTFTCNVAHPASSTKVDKAVDPTCKPSPCDCCPPPELPGGPSVFIFPPKPKDTLTISGTPEVTCVVVDVGHDDPEVKFSWFVDDVEVNTATTKPREEQFNSTYRVVSALRIQHQDWTGGKEFKCKVHNEGLPAPIVRTISRTKGPAREPQVYVLAPPQEELSKSTVSLTCMVTSFYPDYIAVEWQRNGQPESEDKYGTTPPQLDADSSYFLYSKLRVDRNSWQEGDTYTCVVMHEALHNHYTQKSTSKSAGK light: DVVLTQTPVSLSVTLGDQASISCRSSQSLEYSDGYTYLEWYLQKPGQSPQLLIYGVSNRFSGVPDRFIGSGSGTDFTLKISRVEPEDLGVYYCFQATHDPDTFGAGTKLELKQPKSPPSVTLFPPSTEELNGNKATLVCLISDFYPGSVTVVWKADGSTITRNVETTRASKQSNSKYAASSYLSLTSSDWKSKGSYSCEVTHEGSTVTKTVKPSECS", "values": [{"measurement": "EC50 (read off the curve)", "setting": "bovine FcγRI-His", "result": "~9", "unit": "nM"}]}
{"binder": "rat-bovine chimeric anti-bovine PD-1 antibody ch5D2 (mutated bovine IgG1, IgG1 ADCC-) (antibody, 5D2 variable regions on bovine IgG1 (modified from X62916); also called ch5D2 IgG1 ADCC-) heavy: QVQLKETGPGLVQPTQTLSITCTVSGFSLTSYYIQWVRQTPGKGLEWMGFIRSGGSTEYNSEFKSRLSINRDTSKNQVFLKMNSLKTEDTGVYYCARTSSGYEGGFDYWGQGVMVTVSSASTTAPKVYPLSSCCGDKSSSTVTLGCLVSSYMPEPVTVTWNSGALKSGVHTFPAVLQSSGLYSLSSMVTVPGSTSGQTFTCNVAHPASSTKVDKAVDPTCKPSPCDCCPPPPVAGPSVFIFPPKPKDTLTISGTPEVTCVVVDVGHDDPEVKFSWFVDDVEVNTATTKPREEQFNSTYRVVSALRIQHQDWTGGKEFKCKVHNEGLPSSIVRTISRTKGPAREPQVYVLAPPQEELSKSTVSLTCMVTSFYPDYIAVEWQRNGQPESEDKYGTTPPQLDADSSYFLYSKLRVDRNSWQEGDTYTCVVMHEALHNHYTQKSTSKSAGK light: DVVLTQTPVSLSVTLGDQASISCRSSQSLEYSDGYTYLEWYLQKPGQSPQLLIYGVSNRFSGVPDRFIGSGSGTDFTLKISRVEPEDLGVYYCFQATHDPDTFGAGTKLELKQPKSPPSVTLFPPSTEELNGNKATLVCLISDFYPGSVTVVWKADGSTITRNVETTRASKQSNSKYAASSYLSLTSSDWKSKGSYSCEVTHEGSTVTKTVKPSECS", "values": [{"measurement": "binding result", "setting": "bovine FcγRII-His", "result": "no binding (tested: 50 nM)"}, {"measurement": "Kd", "setting": "bovine PD-1-His", "result": 10.5, "unit": "nM"}, {"measurement": "koff", "setting": "bovine PD-1-His", "result": 0.000216, "unit": "s⁻¹"}, {"measurement": "kon", "setting": "bovine PD-1-His", "result": 20700, "unit": "M⁻¹ s⁻¹"}]}
{"binder": "rat anti-bovine PD-L1 monoclonal antibody 4G12 (antibody, V domains shown) VH: QVQLQQSGAELVKPGSSVKISCKASGYTFTSNFMHWVKQQPGNGLEWIGWIYPEYGNTKYNQKFDGKATLTADKSSSTAYMQLSSLTSEDSAVYFCASEEAVISLVYWGQGTLVTVSS VL: DIAITQSPSSVAVSVGETVTLSCKSSQSLLYSENQKDYLGWYQQKPGQTPKPLIYWATNRHTGVPDRFTGSGSGTDFTLIISSVQAEDLADYYCGQYLVYPFTFGPGTKLELK", "values": [{"measurement": "binding result", "setting": "[1]", "result": "binds"}, {"measurement": "kon", "setting": "canine PD-L1-His", "result": "2.42e+06", "unit": "M⁻¹ s⁻¹"}]}
{"binder": "rat-canine chimeric anti-PD-L1 antibody c4G12 (antibody, V domains shown, 4G12 variable regions on canine IgG-D (equivalent to human IgG4) heavy and canine lambda light constant regions) VH: QVQLQQSGAELVKPGSSVKISCKASGYTFTSNFMHWVKQQPGNGLEWIGWIYPEYGNTKYNQKFDGKATLTADKSSSTAYMQLSSLTSEDSAVYFCASEEAVISLVYWGQGTLVTVSS VL: DIAITQSPSSVAVSVGETVTLSCKSSQSLLYSENQKDYLGWYQQKPGQTPKPLIYWATNRHTGVPDRFTGSGSGTDFTLIISSVQAEDLADYYCGQYLVYPFTFGPGTKLELKQ", "values": [{"measurement": "binding result", "setting": "[2]", "result": "binds"}, {"measurement": "kon", "setting": "canine PD-L1-His", "result": "3.14e+06", "unit": "M⁻¹ s⁻¹"}]}
